From patent publication US20170268065

Molecular target: T1, ELK-1 fusion protein (Cell Signaling), P19419
T1 chain: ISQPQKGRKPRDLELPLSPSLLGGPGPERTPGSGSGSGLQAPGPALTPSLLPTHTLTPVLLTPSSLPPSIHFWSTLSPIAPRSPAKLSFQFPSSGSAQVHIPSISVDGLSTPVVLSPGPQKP

B1: V5-tagged ERK1^Y148H (protein)
chain: MAAAAAQGGGGGEPRRTEGVGPGVPGEVEMVKGQPFDVGPRYTQLQYIGEGAYGMVSSAYDHVRKTRVAIKKISPFEHQTYCQRTLREIQILLRFRHENVIGIRDILRASTLEAMRDVYIVQDLMETDLYKLLKSQQLSNDHICYFLHQILRGLKYIHSANVLHRDLKPSNLLINTTCDLKICDFGLARIADPEHDHTGFLTEYVATRWYRAPEIMLNSKGYTKSIDIWSVGCILAEMLSNRPIFPGKHYLDQLNHILGILGSPSQEDLNCIINMKARNYLQSLPSKTKVAWAKLFPKSDSKALDLLDRMLTFNPNKRITVEEALAHPYLEQYYDPTDEPVAEEPFTFAMELDDLPKERLKELIFQETARFQPGVLEAP
B1 was tested, and the “ERK kinase activity (ELK-1 peptide phosphorylation, IP kinase assay after trametinib exposure)” value was “diminished residual kinase activity in the setting of trametinib exposure with the common docking domain mutants compared to other alleles”.
